Substrate in series [1]: O=C(O)c1ccc(O)cc1
Briefly: purified protein. The conditions noted are these: A-domain, 2.5 mM ATP, 5 mM MgCl2, 50 mM Tris-HCl pH 7.4, 1 mM DTT, 2 μM AstA, Sfp modification of T-domain essential.

Substrate in series [2]: O=C(O)c1ccccc1
Nature of the series: purified protein. Format: biochemical, Aspergillus oryzae. The settings on record: A-domain, 2.5 mM ATP, 5 mM MgCl2, 50 mM Tris-HCl pH 7.4, 1 mM DTT, 2 μM AstA, Sfp modification of T-domain essential.

What is called Km is the concentration of substrate that gives half-maximal velocity. Broadly, the kcat is the maximal rate divided by the concentration of active sites.

B1: AstA (Aspergillus oryzae RIB40) (protein)
chain: MDLEPWGPLYRKQDQDGSLDNIAVVSGDIPSPHPKNEPSQTSTLHIPRDSDLDSDIPSVPTALIIAWGLTLSSLTGDEVVGFDLLPFRGDYQDLGARPYHFLLKFGYREWSREAATTGMDLGSASSEGLPQGMGNRPQIAPSRFRNVLIIKQCSDAPGDSGSLESPSLGNVDKDEPTDAFRADMFISIQCGIGRTGIDVHCSFDPAFWTSENIRMILLDLSRNFKEVMRCGRDDTPLTCLEGMSPKGLDCVLRRNIIPPPPKMEACVHHRFQARCRQNPSALAIDAWDGQLTYAELDSLSSQLASRLVSSITICPRGFMGVLMEKSAWVPVAILAVLKVGSAFVFLDGSQPLQRLKIICAETKSQLVLSSAHYREKANTLGPPVLLVEKNQSGLGQAKENDSCPSLLEDYPQPQSQPQDTLYAVFTSGSTGEPKGAMVDHGAFCTMCGPQMAARPTTNVSPRVFQFAPHAFTVSILDYLGTLLQGGCVCVPSEEELRNNMAGAIEGLSANIVTMTPSMARVLDPTQTPSLQLVLLAGEMMAQCDLDKWSQCVRLLSLYGQSENAAGSMISEKSIVPRAPNTFETLTPGFQCWIVSQDNPHRLMALGEVGELLLEGPALGQGYMNDPIQTEDKFICRSFCLEYAHSGSPQSYRLFKTGDLVRYTPAGEIELLGRKGAEVKLRGQRIDLTEIEHHLRCLFPSATRVVADVIIPSDDIDGLHPVLAAFVQVDSVSRTGQSAEATFASPRPEFRAEAKAVLSGLCQTIPSYMIPMTIIPTEAFPFTATGKLDRRSLRQYASAMSRSDLLKYVTDDRGPVVTAVTPVEIIIHDACVEALGVSSDKVGMLDSFPDLGGDSLAARRMVSICRTKGLELAVADILAHSSLTSLAEKCSAGGGGAKQISQGVEMLDPFSTAKEEFLSHLPSFLPNADMIADVFPVQGAQRRAARAIDTFIFRLSGPVDADRLRDACQVLQQAHLALRSIFVPFYGKFMQVVLRVPPLDFTRRLLPDGTDLVKWAESIGQADKTQRPPSEEFVVRFTLAETAGTPDYSIFMMRLSHAQYDAGCLARIISDLWAVYEQKQLVVKSDFAQYARRAVQQTHLLSMEAFWRDLLAGTTGLTPLPVTGISAEEERTIIVQQRVELKEPPPTGISMATVVRGAWSWVLHQQTGNTVVVFNEMLNGRDVVPLEDTEPVVGACHSIVPVCVHFPLPQSGRTPRELLSALQEQHLASLTFTTLDRDYLIQNCTEWTSHQSGFILAYQNFPEICDLVIGEDLSCQWASQVLDLAEPGEAWVTATPLPGALQISLRVSTAAMDEQEANAWISALGQTIIRFLDSPDSVL
notes: recombinant, expressed in Escherichia coli BL21, purified; 1338 aa gene product with A, T and C domains; tag details only in supplement
B1: in series [1], the Km came out at 3.8 µM and the kcat worked out at 0.0163 s⁻¹. For the same protein, in series [2], the Km stood at 4.9 µM and the kcat was found to be 0.0222 s⁻¹.
